Measurements reported in US20050049402A1 (Amgen, published 2005).

B3: H/M PvuII chimeric TNFα (human 1-125, murine 126-157) (ligand)
chain: VRSSSRTPSDKPVAHVVANPQAEGQLQWLNRRANALLANGVELRDNQLVVPSEGLYLIYSQVLFKGQGCPSTHVLLTHTISRIAVSYQTKVNLLSAIKSPCQRETPEGAEAKPWYEPIYLGGVFQLEKGDQLSAEVNLPKYLDFAESGQVYFGVIAL
notes: also called Hu/M PVu11
B4: H/M HincII chimeric TNFα (human 1-91, murine 92-157) (ligand)
chain: VRSSSRTPSDKPVAHVVANPQAEGQLQWLNRRANALLANGVELRDNQLVVPSEGLYLIYSQVLFKGQGCPSTHVLLTHTISRIAVSYQTKVNLLSAVKSPCPKDTPEGAELKPWYEPIYLGGVFQLEKGDQLSAEVNLPKYLDFAESGQVYFGVIAL
notes: Murine range printed 92-157 (human-aligned); also called Hu/M Hin C l1
B11: H/M BglI chimeric TNFα (human 1-36, murine 37-157) (ligand)
chain: VRSSSRTPSDKPVAHVVANPQAEGQLQWLNRRANALLANGMDLKDNQLVVPADGLYLVYSQVLFKGQGCPDYVLLTHTVSRFAISYQEKVNLLSAVKSPCPKDTPEGAELKPWYEPIYLGGVFQLEKGDQLSAEVNLPKYLDFAESGQVYFGVIAL
notes: Murine range is printed as 37-157 in human-aligned numbering; also called H/MBgl1; Hu/MBgl1

Tests used:
[1] = target: T1, human TNFα (Tumor Necrosis Factor-alpha), soluble (human, UniProt P01375 77-233); assay: ELISA on chimeric/mutant TNFα
T1 construct: Recombinant (R&D 210-TA/CF) in screens; biotinylated in the limited antigen assay; also called hTNFα; H-TNFα
From the text: (§1) In order to define the binding site for different antibodies, a number of residues of hTNFα were mutated using site directed mutagenesis. A panel of antibodies was screened for binding by an ELISA assay. […] Histidine at position 73 was deleted, an example is illustrated in Table 19.

human TNFα R131Q mutant = human TNFα R131Q mutant (human, UniProt P01375 77-233); assay: ELISA on chimeric/mutant TNFα
From the text: as §1

human TNFα R31Q mutant = human TNFα R31Q mutant (human, UniProt P01375 77-233); assay: ELISA on chimeric/mutant TNFα
From the text: as §1

[2] = target: T2, human TNFα with histidine 73 deleted (human, UniProt P01375 77-233); assay: ELISA on chimeric/mutant TNFα
T2 construct: Deletion of His73 written as two joined ranges; also called His 73del
T2 sequence (P01375 other isoform, or with tags, fused parts or gaps): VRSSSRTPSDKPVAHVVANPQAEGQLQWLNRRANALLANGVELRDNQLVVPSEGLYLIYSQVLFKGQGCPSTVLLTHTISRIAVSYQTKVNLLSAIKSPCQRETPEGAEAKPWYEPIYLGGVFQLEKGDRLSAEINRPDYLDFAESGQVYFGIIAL
From the text: as §1

[3] = target: human TNFα R31Q, Q27E mutant (human, UniProt P01375 77-233); assay: ELISA on chimeric/mutant TNFα
From the text: as §1

[4] = target: T3, p75-hFc construct (R&D Systems) (UniProt P20333 23-257); assay: receptor-Fc binding to TNFα constructs
T3 construct: Described as similar to etanercept (Enbrel); also called p75s-hFc; Etanercept surrogate
T3 sequence (looked up): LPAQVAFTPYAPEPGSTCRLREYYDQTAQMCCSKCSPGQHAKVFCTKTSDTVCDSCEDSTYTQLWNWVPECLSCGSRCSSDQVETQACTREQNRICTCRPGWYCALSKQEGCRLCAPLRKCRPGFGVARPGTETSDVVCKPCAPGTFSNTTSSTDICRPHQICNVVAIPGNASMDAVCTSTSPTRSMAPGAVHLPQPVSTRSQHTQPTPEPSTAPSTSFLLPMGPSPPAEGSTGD

p55-hFc (R&D) = target: T4, p55-hFc (R&D) (UniProt P19438 30-211, limits assumed); assay: receptor-Fc binding to TNFα constructs
T4 construct: Bought reagent; also called TNFα receptor p55-hFc
T4 sequence (looked up): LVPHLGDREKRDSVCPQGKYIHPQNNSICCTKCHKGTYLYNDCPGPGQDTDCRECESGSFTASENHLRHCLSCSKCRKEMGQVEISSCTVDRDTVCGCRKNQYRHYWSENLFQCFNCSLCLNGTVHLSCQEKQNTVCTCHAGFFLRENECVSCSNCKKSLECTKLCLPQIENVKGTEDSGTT

[5] = target: T1, human TNFα (Tumor Necrosis …); assay: cell-based or functional assay
[6] = target: T1, human TNFα (Tumor Necrosis …); assay: KinExA, TNFα counted as one trimer
Description: (§2) The kinetic measurements of the anti-TNFα antibodies were evaluated using KinExA® and BIACORE® technologies. The KinExA® method involves solution-based determination of formal affinity measurements at equilibrium. To measure the binding kinetics of each human anti-TNFα antibody, two experiments in replicates of three were performed. In both experiments a known concentration of antigen was titrated and a different antibody concentration was added to each antigen titration and allowed to reach binding equilibrium. […] The results were analyzed by dual curve analysis. […] In addition, to negate the possibility of avidity effects, Fab fragments were generated by papain cleavage and the kinetic analysis was repeated (see Table 24).

[7] = target: T1, human TNFα (Tumor Necrosis …); assay: KinExA, TNFα counted as three monomers
Description: as §2

[8] = target: B4; assay: ELISA on chimeric/mutant TNFα
From the text: as §1

[9] = target: B3; assay: ELISA on chimeric/mutant TNFα
From the text: as §1

[10] = target: B11; assay: ELISA on chimeric/mutant TNFα
From the text: as §1

B1: 250 (antibody, human IgG1, V domains shown)
VH: EVQLVESGGGLIQPGGSLRLSCAASGFTVSSNYMSWVRQAPGKGLEWVSVIYSGDRTYYADSVKGRFTISRDNSKNTLYLQMNSLRAEDTAVYYCARGEGGFDYWGQGTLVTVSS
VL: EIVMTQSPATLSVSPGERATLSCRASQSVTSNLAWYQQKPGQAPRLLIHGASIRATGLPARFSGSGSGTEFTLTISSLQSEDFAVYYCQQYNYWWTFGQGTKVEIK
notes: XENOMAX derived, recombinant human IgG1 kappa; also called 250Ab; SC250
[1]
  binding result: binds
Human TNFα R131Q mutant
  binding result: binds
Human TNFα R31Q mutant
  binding result: binds
[2]
  binding result: binds
[3]
  binding result: binds

B2: 269 (antibody, human IgG1, V domains shown)
VH: EVQLVESGGGLIQPGGSLRLSCAASEFTVSRNYMSWVRQAPGKGLEWVSVIYSGDRTYYADSVKGRFTISRDNSKNTLYLQMNSLRAEDTAVYYCARGEGGFDYWGQGTLVTVSS
VL: EIVMTQSPATLSVSPGERATLSCRASQSVSSNLAWYQQKPGQAPRLLIHGASIRATGLPARFSGSGSGTEFTLTISSLQSEDFAVYYCQQYNYWWTFGQGTKVEIK
notes: XENOMAX derived, recombinant human IgG1 kappa; also called 269Ab; SC269
[1]
  binding result: binds
Human TNFα R131Q mutant
  binding result: binds
Human TNFα R31Q mutant
  binding result: binds
[2]
  binding result: binds
[3]
  binding result: binds

## B3
[4]
  binding result: binds
p55-hFc (R&D)
  binding result: binds

## B4
[4]
  binding result: binds
p55-hFc (R&D)
  binding result: binds

B5: 3.2 g1 (antibody, human IgG1, V domains shown)
VH: EVQLVQSGAEVKKPGESLKISCKTSEYSFTSYWIGWVRQMPGKGLEWMGIIYLGDSDTRYSPSFQGQVTISADKSISTAYLQWSSLKASDTAMYYCARSNWGLDYWGQGTLVTVSS
VL: QSVLTQPPSVSGAPGQRVTISCTGSSSNIGAGYDVHWYQQFPGTAPKLLIQGNSNRPSGVPDRFSGSKSGTSASLAITGLQAEDEADYYCQSYDSSLSGSVFGGGTKLTVL
[5]
  IC50 1 hr Pre-incubation, TNF induced apoptosis in MCF-7 cells: 93.8 pM
  IC50 18 hr Pre-incubation, TNF induced apoptosis in MCF-7 cells: 38.6 pM

B6: 299v1 (antibody, human IgG1, V domains shown)
VH: QVQLVESGGGVVQPGRSLRLSCAASGFTFSSYDMHWVRQAPGKGLEWVAVIWSDGSIKYYADSVKGRFTISRDNSKNTLYLQMNSLRAEDTAVYYCAREVESAMGGFYYNGMDVWGQGATVTVSS
VL: DIQMTQSPSSLSASVGDRVTITCRASQGIRIDLGWYQQKPGKAPKRLIYAASTLQSGVPSRFSGSGSGTEFIFTISSLQPEDFASYYCLQHKSYPLTFGGGTKVEIK
notes: XENOMAX derived, recombinant human IgG1 kappa; also called SC299V1
[6]
  Kd: 0.63 pM
  Kd (M) High: 9.2e-13 M
  Kd (M) Low: 4.3e-13 M
[7]
  Kd: 1.89 pM
  Kd (M) High: 2.76e-12 M
  Kd (M) Low: 1.29e-12 M

B7: 313 (antibody, human IgG1, V domains shown)
VH: QVQLVESGGGVVQPGRSLRLSCAASGFTFSNHDIHWVRQAPGKGLEWVAVIWSDGSNKYYADSVKGRFTISRDNSKNTLYLQMNSLRAEDTAVYYCAREKMATIKGYYYYGMDVWGQGTTVTVSS
VL: DIQMTQSPSSLSASVGDRVTITCRASQGIRNDLGWYQQKPGKAPKRLIYAASSLESGVPSRFSGSGSGPEFTLTISSLQPEDFATYYCLQHNSYPLTFGGGTKVEIQ
notes: Recombinant human IgG1 kappa; also called 313 Ab; SC313
[8]
  binding result: binds
[1]
  binding result: binds
Human TNFα R131Q mutant
  binding result: binds
Human TNFα R31Q mutant
  binding result: no binding
[9]
  binding result: binds
[2]
  binding result: binds
[10]
  binding result: binds

B8: 4.17 g1 (antibody, human IgG1, V domains shown)
VH: QVQLVESGGGVVQPGRSLRLSCTTSGFTFSNYGMHWVRQAPGKGLEWVAVIWYDGSIKYYVDSVKGRFTISRDNSKNTLYLQMNSLRAEDTAVYYCAREKDCGGDCYSHYGMDVWGQGTTVTVSS
VL: DIQMTQSPSSLSASVGDRVTITCRASQGIRNDLGWYQQKPGKAPKRLIYAASSLQSGVPSRFSGSGSGTEFTLTISSLQPEDFATYYCLQHMSLPLTFGGGTKVEIK
[5]
  IC50 1 hr Pre-incubation, TNF induced apoptosis in MCF-7 cells: 256 pM
  IC50 18 hr Pre-incubation, TNF induced apoptosis in MCF-7 cells: 40.4 pM

B9: 282 (antibody, human IgG1, V domains shown)
VH: QVQLVESGGGVVQPGRSLRLSCAASGFTVSSYGMHWVRQAPGKGLEWVAVIWSNGSNKYYADSVKGRFTISRDNSKNTLYLQMNSLRAEDTAVYYCARDNGVYVGYAYYYGMDVWGQGTTVTVSS
VL: DIQMTQSPSSLSASVGDRVTITCRASQGIRNDLGWYQQKPGKAPKRLIYAASSLHSGVPSRFSGSGSGTEFTLTISSLQPEDFATYYCLQHNSYPWTFGQGTKVEIK
notes: XENOMAX derived, recombinant human IgG1 kappa; also called 282 Ab; SC282
[1]
  binding result: binds
Human TNFα R131Q mutant
  binding result: binds
Human TNFα R31Q mutant
  binding result: binds
[2]
  binding result: binds
[3]
  binding result: binds

B10: 291 (antibody, human IgG1, V domains shown)
VH: QVQLVESGGSVVQPGRSLRLSCAASGFTFSNYGIHWVRQAPGKGLEWVAVIWSDGSNKYYADSVKGRFTISRDNSKNTLYLQMNSLRAEDTAVYYCARELPNSGSYSGYYYYYGMDVWGQGTTVTVSS
VL: DIQMTQSPSSLSASVGDRVTITCRASQGIRNDLGWYQQKPGKAPKRLIYAASSLQSGVPSRFSGSGSGTEFTLTISSLQPEDFATYYCLQHCCYPLTFGGGTKVEIK
notes: XENOMAX derived, recombinant human IgG1 kappa; also called 291 Ab; SC291
[8]
  binding result: binds
Human TNFα R131Q mutant
  binding result: binds
Human TNFα R31Q mutant
  binding result: no binding
[9]
  binding result: binds
[10]
  binding result: binds

## B11
[4]
  binding result: binds
p55-hFc (R&D)
  binding result: binds
